In US20230374458A1, “COMPOSITIONS AND METHODS FOR GENERATING HUMAN YOLK SAC-LIKE HEMATOPOIETIC CELLS” (UNIVERSITY HEALTH NETWORK, priority 2020, published 2023):

Assays:
[1] = system: H1 human embryonic stem cell (hESC) line; assay: Induction of KDR+CD235a/b+ mesoderm from H1 hESCs (Activin A titration, flow cytometry); assay type: cell-based
Procedure: (§1) hPSC differentiation to the hematopoietic lineage was performed in StemPro-34 media supplemented with penicillin/streptomycin (1%, ThermoFisher), L-glutamine (2 mM, ThermoFisher), ascorbic acid (50 μg/mL, Millipore Sigma), transferrin (150 μg/mL, ROCHE), monothioglycerol (50 μg/mL, Millipore Sigma) and other stage-specific factors for example as described below. Differentiation cultures were maintained in hypoxic conditions (37° C., 5% CO2, 5% O2) unless otherwise indicated. On day 0, hPSC cultures at 80-90% confluency were treated with TrypLE for 3 minutes at 37° C. Thereafter, the 80-90% of the TrypLE was aspirated and the cultures were incubated at 37° C. for an additional 2 minutes. […]
(§2) EBs prior to day 9 of differentiation, monolayer cultures and cultures aggregated after cell sorting were dissociated with Trypsin (Corning) for 5 minutes at 37° C. […] For fluorescence-activated cell sorting (FACS), cells were stained, sorted and collected in StemPro-34 media supplemented with penicillin/streptomycin (1%), L-glutamine (2 mM) and DNaseI. […] Thereafter, the sorted cells were counted and resuspended at 250,000 cells/mL in StemPro-34 media supplemented with recombinant factors appropriate for the day of differentiation. […]

CHOPWT10 human iPSC line = assay: Induction of KDR+CD235a/b+ mesoderm from CHOPWT10 iPSCs (Activin A titration, flow cytometry); assay type: cell-based
Procedure: as §1, §2

B1: Activin A: activin receptor agonist; human Activin A (Uniprot accession number: P08476), recombinant, from R&D Systems (protein, UniProt P08476 311-426, looked up)
Inhibin beta A chain: GLECDGKVNICCKKQFFVSFKDIGWNDWIIAPSGYHANYCEGECPSHIAGTSGSSLSFHSTVINHYRMRGHSPFANLKSCCVPTKLRPMSMLYYDDGQNIIKKDIQNMIVEECGCS
B1 was tested, and the “proportion of KDR+CD235a/b+ cells” value ([1]; 6 ng/mL Activin A with 10 ng/mL BMP4 and 5 ng/mL FGF2, day 4 of differentiation, H1) was “greater than 30%”, the “frequency of CD235a/b+ cells” value ([1]; Activin A 0 to 10 ng/mL with BMP4 10 ng/mL and FGF2 5 ng/mL from day 1 of differentiation) was “increased in an Activin A dose-dependent manner and plateaued when its concentration exceeded 6 ng/mL” and the “proportion of KDR+CD235a/b+ cells” value (CHOPWT10 human iPSC line; 2 ng/mL Activin A, CHOPWT10 human iPSC line, day 4) was “greater than 30%”. The “proportion of KDR+CD235a/b+ cells at day 4 of differentiation” value (CHOPWT10 human iPSC line; 2 or 4 ng/mL Activin A within 0 to 10 ng/mL titration, with BMP4 10 ng/mL and FGF2 5 ng/mL, days 1 to 4) was “highest proportion”.
